± gives the uncertainty stated by the source.
Experiment: protein stability index of a GFP-peptide fusion (yeast GPS) (PSI 1-4); higher = more stable; sorted into four equal gates, so the index is relative within each strain
Summary of the method: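 The protein stability index combines read frequencies across sorting gates, each weighted by its gate number and then summed. To obtain those frequencies, a pooled yeast library of GFP fusions to tiled 17-residue yeast protein peptides, on a plasmid also expressing Cherry, was grown to mid-log phase in leucine-free medium. The cells were sorted into four equal gates by GFP/Cherry ratio before plasmid amplification by PCR and Illumina sequencing.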

Row | Sequence | protein stability index (doa10∆) | protein stability index (pdr5∆) | protein stability index (san1∆) | protein stability index (ubr1∆)
1 | VTSEKYPFDKLESWWLV [BRR2] | 2.42 ± 0.29 | 2.91 ± 0.19 | 2.79 ± 0.12 | 3.3 ± 0.087
2 | VTSMEAAREKKIRELEA [YIL149C/MLP2] | 2.97 ± 0.072 | 2.9 ± 0.1 | 2.92 ± 0.07 | 2.86 ± 0.063
3 | VTYTEHAKRKTVTSLDV [HHF1] | 3.25 ± 0.23 |  |  | 2.68 ± 0.095
4 | VVDANGCVNSLISGPRN [YMR129W/POM152] | 2.86 ± 0.15 | 2.69 ± 0.12 | 2.97 ± 0.13 | 2.66 ± 0.081
5 | VVDQLWSEISNELPDIE [RPN2] | 2.38 ± 0.12 | 2.94 ± 0.1 | 2.75 ± 0.12 | 2.69 ± 0.046
6 | VVEGVTFVVEQLIKQSI [SNU114] | 2.52 ± 0.076 | 2.6 ± 0.095 | 3.44 ± 0.098 | 2.85 ± 0.067
7 | VVEISNGNTSSKTVVTL [FAS1] | 3.11 ± 0.06 | 3.18 ± 0.05 | 3.28 ± 0.072 | 3.26 ± 0.06
8 | VVESVGAEVDEARINEL [RPP2B] | 3.23 ± 0.11 | 3.21 ± 0.091 | 3.35 ± 0.095 | 3.47 ± 0.15
9 | VVGTETRVNAQLESYEY [RRI1] | 2.72 ± 0.18 | 1.65 ± 0.11 | 3.33 ± 0.1 | 2.26 ± 0.1
10 | VVLFNRQPSLHRLSILS [RPO31] | 1.65 ± 0.054 | 1.88 ± 0.053 | 1.44 ± 0.096 | 1.63 ± 0.047
11 | VVLRLYLKDNITLLTRQ [GRR1] | 1.88 ± 0.057 | 1.75 ± 0.084 | 1.34 ± 0.11 | 1.98 ± 0.067
12 | VVLSFSGLNADSRILIE [PRE6] | 2.87 ± 0.15 | 3.26 ± 0.2 | 3.19 ± 0.072 | 3.3 ± 0.13
13 | VVNITHHELVPKHIRLS [RPB5] | 2.52 ± 0.065 | 2.89 ± 0.062 | 3.01 ± 0.064 | 3.01 ± 0.056
14 | VVRIKGINKIPPKPRKV [RPL7A] | 1.94 ± 0.043 | 2.21 ± 0.055 | 2.57 ± 0.063 | 2.44 ± 0.047
15 | VVSILEAGDSDILTTLA [RPL30] | 3.12 ± 0.059 | 2.92 ± 0.074 | 3.01 ± 0.068 | 3.03 ± 0.061
16 | VVVIDGKGHLVGRLASV [RPL16A] | 1.66 ± 0.065 | 1.64 ± 0.054 | 1.71 ± 0.1 | 1.97 ± 0.052
17 | VVVVLEEPSASIMVELK [SIR3] | 2.95 ± 0.083 | 2.99 ± 0.16 | 3.28 ± 0.065 | 2.86 ± 0.2
18 | VWFSHPRRYGKGSRQCR [RPS29A] | 3.14 ± 0.16 | 3.24 ± 0.1 | 3.39 ± 0.067 | 3.31 ± 0.11
19 | VWNYTFMGTAFNQEGDY [PRP8] |  | 3.09 ± 0.19 | 2.73 ± 0.28 | 
20 | WASKYGQEYPRIIGLSA [BRR2] | 1.47 ± 0.073 | 2.32 ± 0.089 | 1.87 ± 0.085 | 1.93 ± 0.052
21 | WESLAKKQNLSSHQRVF [SWP82] | 2.77 ± 0.063 | 2.71 ± 0.071 | 2.83 ± 0.06 | 2.91 ± 0.053
22 | WIKNEQERQRQIQKNGP [PRP8] | 2.75 ± 0.092 | 3.09 ± 0.11 | 2.85 ± 0.14 | 2.84 ± 0.094
23 | WIRLRTNNTIRYNAKRR [RPL39] | 2.88 ± 0.12 | 2.65 ± 0.083 | 2.93 ± 0.1 | 2.72 ± 0.066
24 | WKEVMFDPSKDVLINEL [CDC53] | 2.41 ± 0.074 | 1.87 ± 0.052 | 1.8 ± 0.12 | 1.91 ± 0.073
25 | WMLSICVEWRLPEIAKE [YJR042W/NUP85] | 1.2 ± 0.08 | 1.37 ± 0.05 | 1.51 ± 0.11 | 1.67 ± 0.061

Row | Sequence | protein stability index (doa10∆) | protein stability index (pdr5∆) | protein stability index (san1∆) | protein stability index (ubr1∆)
26 | WNRADNHFKDTYGFSIL [FAS1] | 3.07 ± 0.12 | 2.57 ± 0.069 | 3.35 ± 0.083 | 3.27 ± 0.092
27 | WQIEEAGNSQITSGGFL [SRB5] | 2.98 ± 0.2 | 3.13 ± 0.17 | 3.07 ± 0.25 | 3.23 ± 0.14
28 | WQYYYYTLTEEGVEYLR [RPS10A] | 2.58 ± 0.084 | 2.66 ± 0.072 | 2.74 ± 0.098 | 3.21 ± 0.1
29 | WRAIIKAIFPNTVDGDL [FAS1] | 2.58 ± 0.13 | 2.75 ± 0.15 | 2.6 ± 0.094 | 
30 | WRILKEDYAIVTKGGTV [PRP28] | 3.47 ± 0.27 | 3.2 ± 0.29 | 3.26 ± 0.11 | 3.41 ± 0.17
31 | WSEITESMSYLPDPILK [MCD1] |  | 2.97 ± 0.18 | 2.92 ± 0.23 | 2.64 ± 0.1
32 | WSKESNYDCKVISIVGG [PRP28] | 3.06 ± 0.11 | 3.06 ± 0.11 | 2.31 ± 0.097 | 2.74 ± 0.094
33 | WSKTIKARTNLHQHVVL [RPC34] | 2.11 ± 0.1 | 1.8 ± 0.1 | 1.71 ± 0.21 | 2.34 ± 0.064
34 | WSTTGDNGELDLSGFNI [MED2] | 3.18 ± 0.09 | 3.19 ± 0.12 | 3.34 ± 0.076 | 2.93 ± 0.097
35 | WTEKKGKNVINRERFIS [SMD2] | 2.54 ± 0.16 | 1.54 ± 0.066 | 1.11 ± 0.19 | 3.05 ± 0.087
36 | WTMRIEGRLLDNVQAND [SNF12] | 2.48 ± 0.09 | 2.96 ± 0.096 | 2.7 ± 0.065 | 2.93 ± 0.047
37 | WYEASTWIQQFKSTMLQ [ARP7] | 2.54 ± 0.078 | 2.68 ± 0.069 | 2.6 ± 0.093 | 2.14 ± 0.056
38 | YARFKNDFFPGEVVYLR [ITC1] | 3.29 ± 0.083 | 1.99 ± 0.069 | 2.58 ± 0.1 | 3.22 ± 0.091
39 | YASFNDTFVHVTDLSGK [RPS14B] | 2.31 ± 0.098 | 2.88 ± 0.08 | 2.52 ± 0.084 | 2.73 ± 0.094
40 | YATKDGVAHLLNRFNFQ [QCR2] | 2.45 ± 0.088 | 2.67 ± 0.053 | 1.87 ± 0.29 | 2.6 ± 0.057
41 | YAVKAVENGTTSIGIKC [PRE10] | 2.04 ± 0.11 | 2.02 ± 0.076 | 1.36 ± 0.21 | 2.77 ± 0.19
42 | YDNEKTAELIKELKEKE [PUP2] | 3.27 ± 0.066 | 3.34 ± 0.087 | 3.44 ± 0.094 | 3.31 ± 0.064
43 | YDPIKRIDAFNALEHKY [SSN3] | 2.83 ± 0.058 | 2.85 ± 0.041 | 2.73 ± 0.05 | 2.77 ± 0.043
44 | YDPSIGIFGMDFYVVMN [RPL11A] | 2.26 ± 0.05 | 2.24 ± 0.052 | 2.31 ± 0.055 | 2.55 ± 0.037
45 | YDSRSGTHNMYKEIRDV [RPL20A] | 3.11 ± 0.069 | 3.06 ± 0.064 | 3.16 ± 0.043 | 3.18 ± 0.056
46 | YEKELMGDELTRSHFNA [RPN6] | 2.96 ± 0.13 | 3.39 ± 0.15 | 3.34 ± 0.057 | 3.48 ± 0.1
47 | YENSISKDLRSVWKPIA [IRR1] | 2.58 ± 0.092 | 2.63 ± 0.11 | 2.57 ± 0.064 | 2.54 ± 0.05
48 | YEYGAVSVLLISKDCSA [BRR2] | 2.12 ± 0.047 | 1.97 ± 0.043 | 1.91 ± 0.081 | 1.81 ± 0.041
49 | YFFQLQIRSADEPMTTF [RPC11] | 2.77 ± 0.063 | 2.91 ± 0.068 | 3.06 ± 0.058 | 3.26 ± 0.071
